Our source for the IC50 values is patent US20050026838A1.

In this assay the target is [125I]-FGF-1 binding sites on membranes prepared from adult rat cortex. In words: displacement of [125I]-FGF-1 by unlabelled FGF, membranes prepared from adult rat cortex.

On to “FGF-2 (basic FGF) (from UniProt P09038 143-288) (ligand)”, for which the IC50 worked out at 0.2 nM.

B1: Fibroblast Growth Factor 13 (recombinant human FGF-13, expressed in Escherichia coli) (ligand)
chain: MQGENHPSPNFNQYVRDQGAMTDQLSRRQIREYQLYSRTSGKHVQVTGRRISATAEDGNKFAKLIVETDTFGSRVRIKGAESEKYICMNKRGKLIGKPSGKSKDCVFTEIVLENNYTAFQNARHEGWFMAFTRQGRPRQASRSRQNQREAHFIKRLYQGQLPFPNHAEKQKQFEFVGSAPTRRTKRTRRPQPLT
As to B1, the IC50 was determined as 1 nM. This IC50 lies about 5-fold higher than the previous one.
